Test results taken from the nanobody polyreactivity screen of Harvey et al. (2022).

Assay: yeast display, Sf9 membrane polyspecificity reagent, FACS + sequencing; frameworks hold sequencing errors
Method in brief: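 After 36–48 hours of galactose induction, yeast (Saccharomyces cerevisiae BJ5465) displaying a synthetic nanobody library were stained at 4 °C for 1 hour with 10% biotinylated, detergent-solubilized Sf9 membrane reagent. Streptavidin microbeads enriched the stained cells before FACS sorting into low and high (top ~1%) gates on anti-HA and streptavidin fluorescence. Each clone's polyreactivity label reflects its gate of origin.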

Sequence	polyreactivity (PSR sort gate)
QLQHVESGGGLVQAGGSLRLTCAASGYTYHGYAMGWYRQAPGKERELVAVITQRGGSTSYADSVKGSFTISRDYAKNNVNLQMKSLKPVDTAVYYCNDSAWLVVARTRYGYWGQGTQVTVSS	low polyreactivity
QVQLVESGGGLVQAGGSLRLICAASGFTFLTNAMGWYRQAPGKERELVAAISSGGNTNYADSVKGRFTISRDNAKNTVYLQMNSLKPEDTAVYYCAADNDYLSSQVSYYYWGHGTQVTVSS	low polyreactivity
QVQLVESGGCLVQAGGSLRLSCAASGSTFPIYAMGWYRQAPGKERELVARITWNGGRTYYADSVKGRFTISRDNAKNTVYLQMNSLKPEDTAVYYCNARRYLRGYGYGYWGQGTQVTVSS	high polyreactivity
QVQLVESGGGLVQAGGSLRFSCADSGFTFRTYAMGWYIQAPGKERELVATIRRAGSTYYADSVKGRFTISRDNAKNTVYLQMNSLKPEDTAVYYCAATHYSFSWGYDYWGQGTQVTVSS	high polyreactivity
QVQLVESGGGLVQAGGSLRLSCAASGFIFRAYAMGWYRQAPGKERELVAAITKRSGTTYYADSVKGRFTISRDNAKNTVYLQMHSLKPEDTAVYYCAARYYRDYRWYTYAYDYWGQGTQVTVSS	high polyreactivity
QVQLVESGGGIVQAGGSLRLSCAASGSTFNYNAMGWYRQAPGKERELVAAITRSGDSTYADSVKGRFTISRDNAKNTFYLQMNSLKPEYTAVYYCAKRYTHYSFRRFDYWGQGSQVTVSS	low polyreactivity
QVQLVESGGGLVQAGGSLRLSCAASGSTFTIYAMGWYRQAPGKERELVAGITRVGSTNYADSVKGRFTISRDNAKYTVYLQMNSLKPEDTAVYYCARRDLFQAGYEYWGQGTQVTVSS	low polyreactivity
QVQLVESGGGLVQAGGSLRLSCAASGLTLYRYAMGWYRQAPGKEREFVASISWSGGSTYYADSVKGRFTISRDNANNTVYLQMNSLKPEDTAVYYCATDSDTSQLGYDYWGQGTQVTVSS	low polyreactivity
QVHLVESGGGLVQAGGILRLSCAAYGSTFKSYAMGWYRLAPGKERELVAAISSSTGRTYYADSVKGRFTISLDYAKNTVYLQMNSMKPEDTAVYYCNAVHRYERDYCGQGTQVTVSS	high polyreactivity
QVQLVESGGGLVQAGGSLRLSCAASGLTFRYYAMGWYRQAPGKEREWVASITSRGTSTYYADSVKGRFTISRDNAKNTVYLQMNSLKPEDTAVYYCAKPVGTVGYDYWGQGTQVTVSS	high polyreactivity
QVPLVESGVGLVQAGGSLRLSCAASGSTFTIYAMGWYREAPGKERELVAAITWNGGSTYYADSVKGRFTISRDNAKKTVYLQMNSLKPEDTAVYYCADDYYWYWDLYDYWGQGTQVTVSS	high polyreactivity
QVQLVESGGGLVQAGGSLRLSCAASGFTFYPNAMGWYRQAPGKERELVAAISRSGSSTYYADSVKGRFTISRDNAKNTVYLQMNSLKPEDTAVYYCNRYGRQYDFYYWGQGTQVTVSS	high polyreactivity
QVQLVESGGGLVQAGCSLRLSCAASGYIFYIYAMGWYRQAPGKERELVAAITWSGDTTYYADSVKGRFTISRDNAKNTVYLQMNSLKPEDTAVYNCATYYYYPSWYLLYGEYNYWGQGTQVTVSS	low polyreactivity
QVQLVESGGCLVQAGGSLRLSCAASGSIFDYNAMGWYRQAPGKEREFVAAISSSAGSTYYADSVKGRFTISRDNAKNTVYLQMNSLKPEDTAVYDCAADWYDFSFPYYEYEYWGQGTQVTVSS	low polyreactivity
QVQLVESGGGLVQAGGSLRLSCAASGSIFYRYAMGWYRQAPGKEWELVAAISYSGGSTYYADSVKGRFPISRDNAKNTVYVQMNSLKPEDTAVNYCATDYPPPISDYSRYYGYGYWGQGTQVTVSS	low polyreactivity
QVQLVESGGGLVQAGGSLRLSCAASASTFWKYAMGWYRQAPGKEREFVAAITRSGGNTYYADSVQGRFTISRDNAKNTVFLQMNSLKPEDTAVYYCDKVTTVPYTNDYWGQGTQVTVSS	high polyreactivity

Sequence	polyreactivity (PSR sort gate)
QVQLVESGGCLVQAGGSLPLSCAASGIIFAQYVMGWYIQATGKESELVAAIRTSGGRTYYADSVKGRFTISRDNSKNTVYLQMNSLKPEDTAVYYCAAYGKPTFRSVDYWGQGTQVTVSS	high polyreactivity
QVQLVESGGGLVQAGGSLRLSCAASGITFGVNTMGWYRQAPGKERELVAAITWRGGSTYYADSVKGRFTISRDNAKNTVYLQMNSLKPEDTAVYYCAAQPIWPGGQELDYWGQGTQVTVSS	low polyreactivity
QVQLVESGGGLVQAGGSLRLSCAASARIYTTYAMGWYRQAPGKERELVASITTTDTRTYADSVKGRFTISRDNAKNTVYLQMNSLKPEDTAVYYCAKDRLNKGRYYRGASDYWGLGTQVTVSS	low polyreactivity
QVQLQECGGGLVQAGGSLRLSCAASVNIFDADIMGSYRQAPGKERELVASVTDGGSTNYADSVKGRFTISRDNAKNTVYLQMNSLKPEDTAVYYCAGIVYPDILTFFDYDYDYFYWGQGTQVTVGS	low polyreactivity
QVQLVESGGGLVQEGGSLRLSCAASGRTFGVYAMGWYRQAPGKESTYYADSVKGRFTISRDNAKNTVYLQMNSQKQEDTAVYYCAADEWYYIDPSDDYWGQGSQVTVSS	low polyreactivity
QVQLVESGGGLVQAGGSLRLSCAASGRTFYDYDMGWYRKAPGKERELVAAISGGDSTYYADSVKGRFTISRDNAKNTVFLQMNSLKPEDTAVYYCAVTPRGLPYGAYLLYYWGQGTQVTVSS	low polyreactivity
QVQLVESGGGLVQAGGSLRLSCAASGRIFYRYAMGWYIQAPAKERELFAAITGSGGSTYYADSVKGRFTISRDNAKNTVYFQMNSLKPEDTAVYYCNAVERSAFRGVRFDYDYWGQGTQVTLSS	high polyreactivity
QVQLVESGGGLVQAGGSLRLSCAASGIIFAGNAMGWYRQAPGKERELLAVITSGGSTYYADSVKGRFTISRDNAKNTVFLQINSLIPEDTAVYYCNKVYYAYRVSLYSYGYWGQGTQVTVSS	high polyreactivity
QVQLEESGGGIVQAGGSLRLSCAASGRTCSNYAMGWNRQAPGKERQLVASIRSSGTSTYYADSVKGRFTISRDIAKNTVYLKMNSLKPEDTAVYYCAKRYFTWSSTYNYWGQGTQVTVSS	high polyreactivity
QVQLVESGGGLVQAGGSLRLSCAASGITIRFYAMGWYRQAPGKERELVAAITRGGSTTYADSVKGRFTISRDNAKNTVYLQMNSLKPEDTAVYYCNAQYQSGYYTSYPDRFDYWGQGTQVTVSS	low polyreactivity
QVQLVESGGGLVQAGGSLRLSCAASGFTFRYYVMGWYRQAPGTERELVAAISWTGGSTYYADSVKGRFTISRDNAKNTVYLQMTSLKPEDTAVYYCNAASLSKSDYWGQGTQVTVSS	high polyreactivity
QVPLVESGGGLVQAGGSLRLSCAASGRTFVGYAMGWSSQAPGKDRELVARITGRSGSTYYADSVKGRFTISRDNAKNTVYLQMNSLKTEDTAVYDCAKRITYYYPGYDDWGQGTQVTVAS	low polyreactivity
QVQLVESGGGLVQAGGSIRLSCAASGSIFRIYVMGWYRQAPGQERELVAAINSGGRTKYADSVKARFTISRDNAKNTVYLQMNSLKPEDTAVYYCAAAFQYRKGVSSLYASWGQGTQVTLSS	high polyreactivity
QVQLVESGGGLVQAGGSLRLSCAASGRTFILNAMGLYRQAPGKERELVAAISWSGGSTYYADSVKGRFTISRDNAKNTVYLQMNSLKPEDTAVYYCAAETYAYLFHTYDYWGQGTQVTVSS	low polyreactivity
QVQLVESGGGLVQAGGSLRLSCAASGSIFLEYTMGWYSQAPGKECVLVAAITSGGSTKYADSVKGRFTISRDTAKNTVYLQMNILKPEDTAVYYCNARHYSREFDYWGQGTQVTVSS	low polyreactivity
QVQLVESGGGLVQAGGSLRLSCAASGSIFRSYAMGWYRQAPGKERELVAAISRRGGSTYYADSVKGRFTISRDNAKNTVYLQMNSLKPEDTAVYYCAADRTGPYDYWGQGTQVTVSS	high polyreactivity
